Experimental findings from paper PMC3105425 are described below.

This assay deals with truncated form of ribosomal protein L2 (E. coli) (UniProt P60422). In words: ELISA. For orientation: ELISA stands for enzyme-linked immunosorbent assay.

Chain of DnaAΔ129 lacking the N-terminal 129 residues (P03004 130-467, stated change not applied): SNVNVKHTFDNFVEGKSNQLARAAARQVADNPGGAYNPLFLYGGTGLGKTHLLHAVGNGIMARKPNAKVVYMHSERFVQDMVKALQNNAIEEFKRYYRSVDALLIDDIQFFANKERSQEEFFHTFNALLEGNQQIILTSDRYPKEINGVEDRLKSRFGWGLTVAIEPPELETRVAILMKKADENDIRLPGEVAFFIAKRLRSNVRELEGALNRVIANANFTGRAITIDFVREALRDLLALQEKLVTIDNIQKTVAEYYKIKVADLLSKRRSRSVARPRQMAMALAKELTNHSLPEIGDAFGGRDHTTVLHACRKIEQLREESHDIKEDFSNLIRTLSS

Substance “DnaAΔ129 lacking the N-terminal 129 residues (from UniProt P03004 130-467) (domain or fragment)” displayed a fold reduction of the interaction against wild-type DnaA of 4 fold.
